Consider two molecules from patent publication US20210024601A1 (published 2021).

The target in assay [1] is M104D.
The target in assay [2] is L72I.
For assay [3], the target named is I114W.
Assay [4] addresses V69A.
In assay [5] the target is N71Y.
Assay [6] deals with T1, recombinant human CD25 extracellular domain tagged with 6xHis (human, UniProt P01589 22-240).
T1 chain: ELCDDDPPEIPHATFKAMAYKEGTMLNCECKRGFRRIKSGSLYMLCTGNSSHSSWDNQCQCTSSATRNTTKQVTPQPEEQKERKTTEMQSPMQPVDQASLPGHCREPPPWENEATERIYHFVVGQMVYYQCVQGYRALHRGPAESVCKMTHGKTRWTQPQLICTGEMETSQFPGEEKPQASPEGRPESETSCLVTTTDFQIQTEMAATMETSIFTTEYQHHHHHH

B1: CD25 (receptor)
chain: T1 chain
Regarding B1, the Kd in assay [1] stood at 28 pM; in assay [2], 24 pM; in assay [3], 38 pM; in assay [4], 23 pM; in assay [5], 18 pM.

B2: E68Q (protein)
chain: APTSSSTKKTQLQLEHLLLDLQMILNGINNYKNPKLTRMLTFKFYMPKKATELKHLQCLEEELKPLEQALNLAPSKNFHLRPRDLISNINVIVLELKGSETTFMCEYADETATIVEFLNRWITFSQSIISTLT
Take B2: the Kd in assay [6] turned out to be 22 pM.

For orientation: Kd means the equilibrium constant for the complex coming apart.
